In patent US20130143812A1, “ANTI-INFLAMMATORY DRUG” (SEKISUI MEDICAL CO., LTD., priority 2010, published 2013):

Columns and labels:
RAW264.7 cells [1] = experiment: Expression of M2 and M1 macrophage markers in RAW264.7 cells cultured with activin A or activin B (TaqMan PCR); type: cell-based; settings: 10 or 30 ng/mL added individually, 8 hours
Description: Each of activin A (10 ng/mL or 30 ng/mL) and activin B (10 ng/mL or 30 ng/mL) was individually added to RAW264.7 cells. Human Recombinant (R&D Systems, 338AC005) and Recombinant (R&D Systems, 659AB005) were used for activin A and activin B, respectively. After eight hours, RNeasy Mini Kit (250) (Qiagen, Cat. Number 74106) was used for recovering the cells to extract RNA.
The RNA extracted at step (1) was used for performing a reverse transcription reaction in accordance with the protocol of High Capacity cDNA Reverse Transcription Kit with RNase Inhibitor (ABI) to perform TagMan PCR. Arginase-1 was selected as an M2 macrophage marker and IL-6 and MCP-1 were selected as M1 macrophage markers to create respective TaqMan probes. Each of mRNA expression levels is represented by a multiple when an expression level of cyclophilin A mRNA in the same sample is defined as one (hereinafter, the same applies to the examples using TaqMan PCR unless otherwise stated).

RAW264.7 cells [2] = experiment: Expression of M2 macrophage markers in RAW264.7 cells cultured with activin A and SB431542; type: cell-based; settings: activin A 10 or 30 ng/mL, 24 hours
Description: Activin A (10 ng/mL or 30 ng/mL) and SB431542 (0.1 to 1 μM, Santa Cruz Biotechnology, Inc., sc-204265) were added to RAW264.7 cells in combination as depicted in FIG. 2. Human Recombinant (R&D Systems, 338AC005) was used for activin A. After 24 hours, RNeasy Mini Kit (250) (Qiagen, Cat. Number 74106) was used for recovering the cells to extract RNA. The RNA extracted at step (1) was used for performing a reverse transcription reaction in accordance with the protocol of High Capacity cDNA Reverse Transcription Kit with RNase Inhibitor (ABI) to perform TaqMan PCR. Arginase-1, Mrc2 (mannose receptor 2), and IL-10 were selected as M2 macrophage markers to create respective TaqMan probes.

db/db mice = experiment: Arginase-1 mRNA expression in visceral fat of db/db mice given recombinant adenovirus; type: in vivo; settings: activin expressed by recombinant adenovirus via tail vein once a week for two weeks, compared to control
Description: (§1) Full-length mouse inhibin βA cDNA or full-length mouse inhibin βB cDNA was amplified by using pcDNA3.1/V5-HisA (Invitrogen) in accordance with the recommended method. The amplified product was subjected to HindIII and EcoRV treatments and used for production of recombinant adenovirus. The recombinant adenovirus of inhibin βA or inhibin βB was produced by using Takara Adenovirus Expression Vector Kit (Takara) in accordance with the recommended method. For negative control, β-galactosidase-gene-containing virus attached to the kit was used. The adenovirus was transfected to HEK293 cells by using CellPhect (registered trademark) Transfection Kit (GE Healthcare) with the calcium phosphate method.
After seven-week-old male db/db mice were adapted for one week, 5.0×10^11 pfu/mL of the recombinant adenovirus was lysed in 150 μL of PBS and administered from the tail vein once a week for two weeks. Visceral fat was collected on seventh day after the second administration for performing a reverse transcription reaction in accordance with the protocol of High Capacity cDNA Reverse Transcription Kit with RNase Inhibitor (ABI) and the expression analysis of arginase-1 was performed with TaqMan PCR.

[3] = tested on: high-fat diet-fed B6 mice; experiment: Arginase-1 mRNA expression in visceral fat of high-fat diet-fed B6 mice given recombinant adenovirus; type: in vivo; settings: twelve-week high-fat diet B6 mice, activin expressed by recombinant adenovirus via tail vein once a week for two weeks
Description: as §1
After five-week-old male B6 mice were adapted with normal diet for one week, high-fat diet was fed for twelve weeks. The recombinant adenovirus (5.0×10^11 pfu/mL) was lysed in 150 μL of PBS and administered to mice in the 18th week from the tail vein once a week for two weeks. Visceral fat was collected on seventh day after the second administration for performing reverse transcription in accordance with the protocol of High Capacity cDNA Reverse Transcription Kit with RNase Inhibitor (ABI) and the expression analysis of arginase-1 was performed with TaqMan PCR.

RAW264.7 cells [4] = experiment: Macrophage marker expression in RAW264.7 cells with activin A, activin B or SB431542 and palmitic acid; type: cell-based; settings: 8 hours
Description: (1) Induction of Macrophages by Activin Species Activin A (10 ng/mL), activin B (10 ng/mL), and SB431542 (0.1 to 1 μM) were added to RAW264.7 cells in combination as depicted in FIG. 4. Human Recombinant (R&D Systems, 338AC005) and Recombinant (R&D Systems, 659AB005) were used for activin A and activin B, respectively. After 30 minutes, palmitic acid (a proinflammatory substance) was added to the final concentration of 200 μM and, after eight hours, RNeasy Mini Kit (250) (Qiagen, Cat. Number 74106) was used for recovering the cells to extract RNA. The RNA extracted at step (1) was used for performing a reverse transcription reaction in accordance with the protocol of High Capacity cDNA Reverse Transcription Kit with RNase Inhibitor (ABI) to perform TaqMan PCR. Arginase-1 was selected as an M2 macrophage marker and IL-6 and MCP-1 were selected as M1 macrophage markers to create respective TaqMan probes. Analysis was performed in the same way as the expression analysis of macrophage markers of Example 1.

RAW264.7 cells [5] = experiment: Arginase-1 expression in RAW264.7 cells with activin A, Fstl3, anti-Fstl3 antibody or mouse IgG and palmitic acid; type: cell-based; settings: activin A 10 ng/mL, under induction of inflammation by palmitic acid 200 μM
Description: Fstl3 (30 ng/mL), an anti-Fstl3 antibody or mouse IgG (0.3 to 10 μg/mL), and activin A (10 ng/mL) were added to RAW264.7 cells in combination as depicted in FIG. 6. Human Recombinant (R&D Systems, 338AC005), Recombinant (R&D Systems, 659AB005), and Follistatin-like 3 Recombinant (R&D Systems, 1255F3025) were used for activin A, activin B, and Fstl3, respectively. After 30 minutes, palmitic acid (a proinflammatory substance) was added to the final concentration of 200 μM and, after eight hours, RNeasy Mini Kit (250) (Qiagen, Cat. Number 74106) was used for recovering the cells to extract RNA.
The RNA extracted at step (1) was used for performing a reverse transcription reaction in accordance with the protocol of High Capacity cDNA Reverse Transcription Kit with RNase Inhibitor (ABI) to perform TaqMan PCR. Arginase-1 was selected as an M2 macrophage marker to create TaqMan probes.

[6] = tested on: high-fat diet-fed B6 mice; experiment: Glucose tolerance test (GTT) in high-fat diet-fed B6 mice given recombinant adenovirus; type: in vivo; settings: activin expressed by recombinant adenovirus, glucose 1.0 mg/g-BW into abdominal cavity
Description: Adenovirus was produced in the same way as the production of recombinant adenovirus in Example 3.
After five-week-old male B6 mice were adapted with normal diet for one week, high-fat diet was fed for twelve weeks. The recombinant adenovirus (5.0×10^11 pfu/mL) was lysed in 150 μL of PBS and administered to mice in the 18th week from the tail vein once a week for two weeks. A glucose tolerance test (GTT) was performed on seventh day after the second administration.
The GTT was performed as follows. Into the abdominal cavities of mice fasted for 16 hours from the previous day of the test, 1.0 mg/g-BW of glucose (diluted by physiological saline) was administered. Serum was separated from collected whole blood and glucose concentration was measured by Glucose-Test Wako (manufactured by Wako Pure Chemical Industries).

[7] = activin 10 ng/mL, palmitic acid 200 μM

B1: activin A: Human Recombinant (R&D Systems, 338AC005); in Examples 3 and 7 expressed by inhibin βA recombinant adenovirus (protein, UniProt P08476 311-426, looked up)
Inhibin beta A chain: GLECDGKVNICCKKQFFVSFKDIGWNDWIIAPSGYHANYCEGECPSHIAGTSGSSLSFHSTVINHYRMRGHSPFANLKSCCVPTKLRPMSMLYYDDGQNIIKKDIQNMIVEECGCS
modifications: Inhibin beta A chain homodimer
expression level of IL-6 (M1 macrophage marker) (RAW264.7 cells [1]): not changed | expression level of MCP-1 (M1 macrophage marker) (RAW264.7 cells [1]): not changed | expression of arginase-1 (M2 macrophage marker) (RAW264.7 cells [1]; mRNA relative to cyclophilin A): remarkably increased | expression of IL-10 (RAW264.7 cells [2]): remarkably increased | expression of Mrc2 (RAW264.7 cells [2]): remarkably increased | expression of arginase-1 (RAW264.7 cells [2]): remarkably increased | expression of arginase-1 in visceral fat (db/db mice): no difference from the control | expression level of arginase-1 in visceral fat [3]: slightly increased | expression level of arginase-1 (RAW264.7 cells [4]; activin 10 ng/mL present, palmitic acid 200 μM added, compared to control): remarkably increased | expression level of MCP-1, effect of activin addition (RAW264.7 cells [4]; [7]): not changed | expression of IL-6, effect of activin addition (RAW264.7 cells [4]; [7]): slightly reduced | expression level of arginase-1 (RAW264.7 cells [5]): increased | glucose metabolism in glucose tolerance test (GTT) [6]: improved glucose metabolism
